Assay [1] addresses T1, human CD3 epsilon 1-26_Fc fusion protein (human).
T1 construct: also called human CD3 1-26_Fc fusion protein
Description: SPR, human IgG1 format, graded relative to chimeric SP34; one grade for human and cynomolgus protein. In general terms: SPR reads the build-up and loss of mass on a sensor chip optically.

In assay [2] the target is T2, cynomolgus monkey CD3 epsilon 1-26_Fc fusion protein (cynomolgus monkey).
T2 construct: also called cynomolgus CD3 epsilon 1-26 Fc fusion protein
Described as above.

B1: VH1/VL3 (antibody)
heavy: not shown
light: EAVVTQSATLSVSPGERATLSCRSSTGAVTTSNYANWVQEKPGQAFRGLIGGANKRAPGVPARFSGSLSGDEATLTISSLQSEDFAVYFCQLWYSNLWVFGQGTKLEIKRTVAAPSVFIFPPSDEQLKSGTASVVCLLNNFYPREAKVQWKVDNALQSGNSQESVTEQDSKDSTYSLSSTLTLSKADYEKHKVYACEVTHQGLSSPVTKSFNRGEC
notes: IgG1; SP34 series; also called humanized SP34 VH1/VL3 antibody; copies: 2 + 2
B1: the binding result in assay [1] and in assay [2] was “no binding (tested: not printed)” in each case.

B2: VH1/VL2 (antibody, human IgG1, kappa)
heavy: not shown
light: EAVVTQSPATLSVSPGERATLSCRSSTGAVTTSNYANWVQEKPGQAFRGLIGGANKRAPGVPARFSGSLSGDEATLTISSLQSEDFAVYFCALWYSNLWVFGQGTKLEIKRTVAAPSVFIFPPSDEQLKSGTASVVCLLNNFYPREAKVQWKVDNALQSGNSQESVTEQDSKDSTYSLSSTLTLSKADYEKHKVYACEVTHQGLSSPVTKSFNRGEC
notes: IgG1; SP34 series; copies: 2 + 2
For the molecule B2, the binding result in assay [1] and in assay [2] was “binds” throughout.

B3: VH1/VL11 (antibody, human IgG1, kappa, V domains shown)
VH: EVQLVESGGGLVQPGGSLRLSCAASGFTFNTYAMNWVRQAPGKGLEWVARIRSKYNNYATYYADSVKGRFTISRDDSKNTLYLQMNSLRAEDTAVYYCVRHGNFGNSYVSWFAYWGQGTTVTVSS
VL: EAVVTQSPATLSVSPGERATLSCRSSTGAVTTSNYANWVQEKPGQAFRGLIGGANKRAPGVPARFSGSGSGTEATLTISSLQSEDFAVYFCALWYSNLWVFGQGTKLEIKR
notes: IgG1; also called humanized SP34 VH1/VL11 antibody; copies: 2 + 2
Take B3: the binding result in assay [1] and in assay [2] was “binds” throughout.

B4: VH1/VL5 (antibody, human IgG1, kappa)
heavy: not shown
light: EIVVTQSPATLSVSPGERATLSCRSSTGAVTTSNYANWVQEKPGQAFRGLIGGANKRAPGVPARFSGSLSGDEATLTISSLQSEDFAVYFCALWYSNLWVFGQGTKLEIKRTVAAPSVFIFPPSDEQLKSGTASVVCLLNNFYPREAKVQWKVDNALQSGNSQESVTEQDSKDSTYSLSSTLTLSKADYEKHKVYACEVTHQGLSSPVTKSFNRGEC
notes: IgG1; also called humanized SP34 VH1/VL5 antibody; copies: 2 + 2
In the case of B4, the binding result in assay [1] and in assay [2] was “binds” throughout.

B5: VH1/VL13 (antibody, human IgG1, kappa)
heavy: not shown
light: EAVVTQSPATLSVSPGERATLSCRASTGAVTTSNYANWVQEKPGQAFRGLIGGANKRAPGVPARFSGSLSGDEATLTISSLQSEDFAVYFCALWYSNLWVFGQGTKLEIKRTVAAPSVFIFPPSDEQLKSGTASVVCLLNNFYPREAKVQWKVDNALQSGNSQESVTEQDSKDSTYSLSSTLTLSKADYEKHKVYACEVTHQGLSSPVTKSFNRGEC
notes: IgG1; also called humanized SP34 VH1/VL13 antibody; copies: 2 + 2
B5: the binding result in assay [1] and in assay [2] was “binds” each time.

B6: VH1/VL21 (antibody, human IgG1, kappa)
heavy: not shown
light: EIVVTQSPATLSVSPGERATLSCRSSTGAVTTSNYANWVQEKPGQAFRGLIGGANKRAPGVPARFSGSLSGDEATLTISSLQSEDFAVYYCALWYSNLWVFGQGTKLEIKRTVAAPSVFIFPPSDEQLKSGTASVVCLLNNFYPREAKVQWKVDNALQSGNSQESVTEQDSKDSTYSLSSTLTLSKADYEKHKVYACEVTHQGLSSPVTKSFNRGEC
notes: IgG1 format of the variable domains of m38; also called humanized SP34 VH1/VL21 antibody (IgG1 format); H1L21 IgG1; copies: 2 + 2
As for B6, the binding result in assay [1] and in assay [2] was “binds” each time.

B7: VH1/VL17 (antibody, human IgG1, kappa)
heavy: not shown
light: EIVVTQSPATLSVSPGERATLSCRASTGAVTTSNYANWVQEKPGQAFRGLIGGANKRAPGVPARFSGSLSGDEATLTISSLQSEDFAVYFCALWYSNLWVFGQGTKLEIKRTVAAPSVFIFPPSDEQLKSGTASVVCLLNNFYPREAKVQWKVDNALQSGNSQESVTEQDSKDSTYSLSSTLTLSKADYEKHKVYACEVTHQGLSSPVTKSFNRGEC
notes: IgG1; also called humanized SP34 VH1/VL17 antibody; copies: 2 + 2
Regarding B7, the binding result in assay [1] and in assay [2] was “binds” throughout.

B8: VH1/VL10 (antibody, human IgG1, kappa)
heavy: not shown
light: EAVVTQSPATLSVSPGERATLSCRSSTGAVTTSNYANWVQEKPGQAFRGLIGGANKRAPGVPARFSGSLSGDEATLTISSLQSEDFAVYYCALWYSNLWVFGQGTKLEIKRTVAAPSVFIFPPSDEQLKSGTASVVCLLNNFYPREAKVQWKVDNALQSGNSQESVTEQDSKDSTYSLSSTLTLSKADYEKHKVYACEVTHQGLSSPVTKSFNRGEC
notes: IgG1; also called humanized SP34 VH1/VL10 antibody; copies: 2 + 2
On to B8, for which the binding result in assay [1] and in assay [2] was “binds” in each case.

B9: VH1/VL19 (antibody, human IgG1, kappa, V domains shown)
VH: EVQLVESGGGLVQPGGSLRLSCAASGFTFNTYAMNWVRQAPGKGLEWVARIRSKYNNYATYYADSVKGRFTISRDDSKNTLYLQMNSLRAEDTAVYYCVRHGNFGNSYVSWFAYWGQGTTVTVSS
VL: EIVVTQSPATLSVSPGERATLSCRSSTGAVTTSNYANWVQEKPGQAFRGLIGGANKRAPGVPARFSGSLSGTEATLTISSLQSEDFAVYYCALWYSNLWVFGQGTKLEIKR
notes: IgG1; also called humanized SP34 VH1/VL19 antibody; copies: 2 + 2
Turning to B9, the binding result in assay [1] and in assay [2] was “binds” throughout.

B10: VH1/VL18 (antibody, human IgG1, kappa)
heavy: not shown
light: EIVVTQSPATLSVSPGERATLSCRSSTGAVTTSNYANWVQEKPGQAFRGLIGGANKRAPGVPARFSGSLSGDEATLTISSLQSEDFAVYFCALWYSNLWVFGGGTKLEIKRTVAAPSVFIFPPSDEQLKSGTASVVCLLNNFYPREAKVQWKVDNALQSGNSQESVTEQDSKDSTYSLSSTLTLSKADYEKHKVYACEVTHQGLSSPVTKSFNRGEC
notes: IgG1; also called humanized SP34 VH1/VL18 antibody; copies: 2 + 2
Regarding B10, the binding result in assay [1] and in assay [2] was “binds” in each case.

B11: VH1/VL8 (antibody, human IgG1, kappa, V domains shown)
VH: EVQLVESGGGLVQPGGSLRLSCAASGFTFNTYAMNWVRQAPGKGLEWVARIRSKYNNYATYYADSVKGRFTISRDDSKNTLYLQMNSLRAEDTAVYYCVRHGNFGNSYVSWFAYWGQGTTVTVSS
VL: EAVVTQSPATLSVSPGERATLSCRSSTGAVTTSNYANWVQEKPGQAFRGLIGGANKRAPGVPARFSGSGSGDEATLTISSLQSEDFAVYFCALWYSNLWVFGQGTKLEIKR
notes: IgG1; also called humanized SP34 VH1/VL8 antibody; copies: 2 + 2
As for B11, the binding result in assay [1] and in assay [2] was “binds” each time.

B12: VH1/VL15 (antibody, human IgG1, kappa, V domains shown)
VH: EVQLVESGGGLVQPGGSLRLSCAASGFTFNTYAMNWVRQAPGKGLEWVARIRSKYNNYATYYADSVKGRFTISRDDSKNTLYLQMNSLRAEDTAVYYCVRHGNFGNSYVSWFAYWGQGTTVTVSS
VL: EAVVTQSPATLSVSPGERATLSCRSSTGAVTTSNYANWVQQKPGQAFRGLIGGANKRAPGVPARFSGSLSGDEATLTISSLQSEDFAVYFCALWYSNLWVFGQGTKLEIKR
notes: IgG1; also called humanized SP34 VH1/VL15 antibody; copies: 2 + 2
Turning to B12, the binding result in assay [1] and in assay [2] was “binds” in each case.

B13: VH1/VL14 (antibody, human IgG1, kappa, V domains shown)
VH: EVQLVESGGGLVQPGGSLRLSCAASGFTFNTYAMNWVRQAPGKGLEWVARIRSKYNNYATYYADSVKGRFTISRDDSKNTLYLQMNSLRAEDTAVYYCVRHGNFGNSYVSWFAYWGQGTTVTVSS
VL: EAVVTQSPATLSVSPGERATLSCRSSTGAVTTSNYANWVQEKPGQAFRLLIGGANKRAPGVPARFSGSLSGDEATLTISSLQSEDFAVYFCALWYSNLWVFGQGTKLEIKR
notes: IgG1; also called humanized SP34 VH1/VL14 antibody; copies: 2 + 2
Consider B13, for which the binding result in assay [1] and in assay [2] was “no binding (tested: not printed)” in each case.

B14: VH1/VL12 (antibody, human IgG1, kappa)
heavy: not shown
light: EAVVTQSPATLSVSPGERATLSCRSSTGAVTTSNYANWVQEKPGQAFRGLIGGANKRAPGVPARFSGSLSGTEATLTISSLQSEDFAVYFCALWYSNLWVFGQGTKLEIKRTVAAPSVFIFPPSDEQLKSGTASVVCLLNNFYPREAKVQWKVDNALQSGNSQESVTEQDSKDSTYSLSSTLTLSKADYEKHKVYACEVTHQGLSSPVTKSFNRGEC
notes: IgG1; also called humanized SP34 VH1/VL12 antibody; copies: 2 + 2
For the molecule B14, the binding result in assay [1] and in assay [2] was “binds” throughout.

B15: VH1/VL22 (antibody, human IgG1, kappa, V domains shown)
VH: EVQLVESGGGLVQPGGSLRLSCAASGFTFNTYAMNWVRQAPGKGLEWVARIRSKYNNYATYYADSVKGRFTISRDDSKNTLYLQMNSLRAEDTAVYYCVRHGNFGNSYVSWFAYWGQGTTVTVSS
VL: EIVVTQSPATLSVSPGERATLSCRSSTGAVTTSNYANWVQQKPGQAFRGLIGGANKRAPGVPARFSGSLSGDEATLTISSLQSEDFAVYYCALWYSNLWVFGQGTKLEIKR
notes: IgG1; also called humanized SP34 VH1/VL22 antibody; copies: 2 + 2
As to B15, the binding result in assay [1] and in assay [2] was “binds” throughout.

B16: VH1/VL16 (antibody, human IgG1, kappa)
heavy: not shown
light: EIVVTQSPATLSVSPGERATLSCRSSTGAVTTSNYANWVQEKPGQAFRGLIGGANKRAPGVPARFSGSLSGTEATLTISSLQSEDFAVYFCALWYSNLWVFGQGTKLEIKRTVAAPSVFIFPPSDEQLKSGTASVVCLLNNFYPREAKVQWKVDNALQSGNSQESVTEQDSKDSTYSLSSTLTLSKADYEKHKVYACEVTHQGLSSPVTKSFNRGEC
notes: IgG1; also called humanized SP34 VH1/VL16 antibody; copies: 2 + 2
For B16, the binding result in assay [1] and in assay [2] was “binds” in each case.

B17: VH1/VL6 (antibody, human IgG1, kappa, V domains shown)
VH: EVQLVESGGGLVQPGGSLRLSCAASGFTFNTYAMNWVRQAPGKGLEWVARIRSKYNNYATYYADSVKGRFTISRDDSKNTLYLQMNSLRAEDTAVYYCVRHGNFGNSYVSWFAYWGQGTTVTVSS
VL: EAVVTQSPATLSVSPGERATLSCRSSTGAVTTSNYANWVQEKPGQAPRGLIGGANKRAPGVPARFSGSLSGDEATLTISSLQSEDFAVYFCALWYSNLWVFGQGTKLEIKR
notes: IgG1; also called humanized SP34 VH1/VL6 antibody; copies: 2 + 2
As for B17, the binding result in assay [1] and in assay [2] was “binds” throughout.

B18: humanized SP34 prototype antibody VH1/VL1 (antibody, human IgG1, kappa)
VH: not shown
VL: EAVVTQSPATLSVSPGERATLSCRSSTGAVTTSNYANWVQEKPGQAFRGLIGGANKRAPGVPARFSGSLSGDEATLTISSLQSEDFAVYFCQLWYSNLWVFGQGTKLEIKRTVAAPSVFIFPPSDEQLKSGTASVVCLLNNFYPREAKVQWKVDNALQSGNSQESVTEQDSKDSTYSLSSTLTLSKADYEKHKVYACEVTHQGLSSPVTKSFNRGEC
notes: Human IgG1; Printed as 'variable heavy chain and light chain'
For B18, the binding result in assay [1] and in assay [2] was “binds” in each case.

B19: Chimeric SP34 (antibody, human IgG1, kappa, V domains shown)
VH: EVQLVESGGGLVQPKGSLKLSCAASGFTFNTYAMNWVRQAPGKGLEWVARIRSKYNNYATYYADSVKDRFTISRDDSQSILYLQMNNLKTEDTAMYYCVRHGNFGNSYVSWFAYWGQGTLVTVSA
VL: QAVVTQESALTTSPGETVTLTCRSSTGAVTTSNYANWVQEKPDHLFTGLIGGTNKRAPGVPARFSGSLIGDKAALTITGAQTEDEAIYFCALWYSNLWVFGGGTKLTVLR
notes: IgG1; also called chimeric SP34 antibody; SP34 chimera
On to B19, for which the binding result in assay [1] and in assay [2] was “binds” each time.

These data come from patent US20190135918A1 (ICHNOS SCIENCES, published 2019).
